These results are taken from article PMC3718817 (2013).

B1: Gal4AD-Sds22 [S. cerevisiae] / Gal4(1-147)-Glc7 [S. cerevisiae] (parent complex)
chain 1: MDKNSVNKDSEEKDERHKIEVVDDTNPDFITADSELTQDLPDDVEVIDLVHLKIKSLEDLNLYRFKNLKQLCLRQNLIESISEVEVLPHDKIVDLDFYDNKIKHISSNVNKLTKLTSLDLSFNKIKHIKNLENLTDLENLYFVQNSISKIENLSTLKSLKNLELGGNKVHSIEPDSFEGLSNLEEIWLGKNSIPRLINLHPLKNLKILSIQSNKLKKIENLEELTNLEELYLSHNFITKIEGLEKNLKLTTLDVTSNKITSLENLNHLSNLTDIWASFNKIDQSFESLGENLSALSRLETIYLEGNPIQLENKTSYRRKLTMNLPPSLQKIDATYIRG
chain 2: MDSQPVDVDNIIDRLLEVRGSKPGQQVDLEENEIRYLCSKARSIFIKQPILLELEAPIKICGDIHGQYYDLLRLFEYGGFPPESNYLFLGDYVDRGKQSLETICLLLAYKIKYPENFFILRGNHECASINRIYGFYDECKRRYNIKLWKTFTDCFNCLPIAAIIDEKIFCMHGGLSPDLNSMEQIRRVMRPTDIPDVGLLCDLLWSDPDKDIVGWSENDRGVSFTFGPDVVNRFLQKQDMELICRAHQVVEDGYEFFSKRQLVTLFSAPNYCGEFDNAGAMMSVDESLLCSFQILKPAQKSLPRQAGGRKKK

The variants in this assay derive from B1. The assay is described as follows: two-hybrid assay (β-galactosidase activity); three independent PJ69-4A transformants; parent: 23; read off a plot.
Consider chain 1 MDKNSVNKDSEEKDERHKIEVVDDTNPDFITADSELTQDLPDDVEVIDLVHLKIKSLEDLNLYRFKNLKQLCLRQNLIESISEVEVLPHDKIVDLDFYDNKIKHISSNVNKLTKLTSLDLSFNKIKHIKNLENLTDLENLYFVQNSISKIENLSTLKSLKNLELGGNKVHSIEPDSFEGLSNLEEIWLGKNSIPRLINLHPLKNLKILSIQSNKLKKIENLEELTNLEELYLSHNFITKIEGLEKNLKLTTLDVTSNKITSLENLNHLSNLTDIAASFNKIDQSFESLGENLSALSRLETIYLEGNPIQLENKTSYRRKLTMNLPPSLQKIDATYIRG [chain 1 W275A], for which the response was roughly 11.

On to chain 1 MDKNSVNKDSEEKDERHKIEVVDDTNPDFITADSELTQDLPDDVEVIDLVHLKIKSLEDLNLYRFKNLKQLCLRQNLIESISEVEVLPHDKIVDLDFYDNKIKHISSNVNKLTKLTSLDLSFNKIKHIKNLENLTDLENLYFVQNSISKIENLSTLKSLKNLELGGNKVHSIEPDSFEGLSNLEEIWLGKNSIPRLINLHPLKNLKILSIQSNKLKKIENLEELTNLEELYLSHNFITKIEGLEKNLKLTTLDVTSNKITSLENLNHLSNLTAIWASFNKIDQSFESLGENLSALSRLETIYLEGNPIQLENKTSYRRKLTMNLPPSLQKIDATYIRG [chain 1 D273A], for which the response was roughly 19.

With chain 1 MDKNSVNKDSEEKDERHKIEVVDDTNPDFITADSELTQDLPDDVEVIDLVHLKIKSLEDLNLYRFKNLKQLCLRQNLIGSISEVEVLPHDKIVDLDFYDNKIKHISSNVNKLTKLTSLDLSFNKIKHIKNLENLTDLENLYFVQNSISKIENLSTLKSQKNLELGGNKVHSIEPDSFEGLSNLEEIWLGKNSIPRLINLHPLKNLKILSIQSNKLKKIENLEELTNLEELYLSHNFITKIEGLEKNLKLTTLDVTSNKITSLENLNHLSNLTDIWASFNKIDQSFESLGENLSAISRLETIYLEGNPIQLENKTSYRRKLTMNLPPSLQKIDATYIRG [chain 1 E79G, chain 1 L159Q, chain 1 L295I], the response is roughly 6.

With chain 1 MDKNSVNKDSEEKDERHKIEVVDDTNPDFITADSELTQDLPDDVEVIDLVHLKIKSLEDLNLYRLKNLKQLCLRQNLIESISEVEVLPHDKIVDLDFYDNKIKHISSNVNKLTKLTSLDLSFNKIKHIKNLENLTDLENLHFVQNSISKIENLSTLKSLKNLELGGNKVHSIEPDSFEGLSNLEEIWLGKNSIPRLINLHPLKNLKILSTQSNKLKKIENLEELTNLEELYLSHNFITKIEGLEKNLKLTTLDVTSNKITSLENLNHLSNLTDIWASFNKIDQSFESLGENLSALSRLETIYLEGNPIQLENKTSYRRKLTMNLPPSLQKIDATYIRG [chain 1 F65L, chain 1 Y141H, chain 1 I210T], the response is roughly 13.

As to chain 1 MDKNSVNKDSEEKDERHKIEVVDDTNPDFITADSELTQDLPDDVEVIDLVHLKIKSLEDLNLYRFKNLKQLCLRQNLIESISEVEVLPHDKIVDLDFYDNKIKHISSNVNKLTKLTSLALSFNKIKHIKNLENLTDLENLYFVQNSISKIENLSTLKSLKNLELGGNKVHSIEPDSFEGLSNLEEIWLGKNSIPRLINLHPLKNLKILSIQSNKLKKIENLEELTNLEELYLSHNFITKIEGLEKNLKLTTLDVTSNKITSLENLNHLSNLTDIWASFNKIDQSFESLGENLSALSRLETIYLEGNPIQLENKTSYRRKLTMNLPPSLQKIDATYIRG [chain 1 D119A], the response is roughly 11.
